Results as given in patent US20240376151A1 (FOG PHARMACEUTICALS, published 2024).
Bridge positions count the residues as written; N and C are the ends.

Experiments:
[1] = biological target: T1, beta-catenin Armadillo domain, residues 134-665 (human, UniProt P35222 134-665, biotinylated through the N-terminal yBBr tag for SPR; tag cleaved off for crystallography); assay: SPR, alanine-scanning table
T1 construct: also called β-catenin; CTNNB1
T1 sequence: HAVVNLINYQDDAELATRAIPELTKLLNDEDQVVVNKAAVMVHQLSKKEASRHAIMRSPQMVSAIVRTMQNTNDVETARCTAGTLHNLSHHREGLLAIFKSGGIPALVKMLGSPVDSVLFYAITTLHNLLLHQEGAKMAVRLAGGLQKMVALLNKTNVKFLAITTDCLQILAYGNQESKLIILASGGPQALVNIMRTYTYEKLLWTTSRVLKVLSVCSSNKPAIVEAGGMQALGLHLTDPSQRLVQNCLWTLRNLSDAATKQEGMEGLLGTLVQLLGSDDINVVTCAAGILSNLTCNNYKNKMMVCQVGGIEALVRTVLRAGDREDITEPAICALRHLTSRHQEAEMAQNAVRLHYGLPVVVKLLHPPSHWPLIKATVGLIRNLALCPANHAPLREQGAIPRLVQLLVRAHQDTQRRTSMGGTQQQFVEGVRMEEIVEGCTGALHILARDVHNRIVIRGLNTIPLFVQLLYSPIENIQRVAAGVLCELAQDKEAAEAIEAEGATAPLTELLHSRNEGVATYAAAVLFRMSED

[2] = biological target: T1, beta-catenin Armadillo domain, residues …; assay: SPR, immobilized β-catenin, MDM2 flowed in the presence of 1 µM Helicon H330 (1.m112)
[3] = biological target: T1, beta-catenin Armadillo domain, residues …; assay: SPR, immobilized β-catenin, MDM2 flowed in the presence of 1 µM Helicon H332 (1.m114)
[4] = biological target: CDK2:Cyclin E1 (CCNE1) complex (UniProt P24864 81-363); assay: SPR, ligand CDK2 (pT160) : CCNE1
[5] = biological target: T2, active CDK2 (with T160 phosphorylated) (Homo sapiens (Human), UniProt P24941 1-298); assay: SPR, ligand CDK2 (pT160), no additive
[6] = biological target: T2, active CDK2 (with T160 phosphorylated); assay: SPR, ligand CDK2 (pT160), additive 200 nM Dinaciclib
[7] = biological target: T2, active CDK2 (with T160 phosphorylated); assay: SPR, ligand CDK2 (pT160), additives 2 mM AMPPNP, 5mM MgCl2
[8] = biological target: T3, PPIA, full length (residues 1-165) (human, UniProt P62937 1-165); assay: SPR, affinity fit
T3 construct: also called Cyclophilin A; peptidyl-prolyl cis-trans isomerase A

[9] = biological target: T3, PPIA, full length (residues 1-165); assay: assay not named on the sheet; printed beside the co-crystal structure

T3 sequence (P62937 whole entry, the tested form may be a part): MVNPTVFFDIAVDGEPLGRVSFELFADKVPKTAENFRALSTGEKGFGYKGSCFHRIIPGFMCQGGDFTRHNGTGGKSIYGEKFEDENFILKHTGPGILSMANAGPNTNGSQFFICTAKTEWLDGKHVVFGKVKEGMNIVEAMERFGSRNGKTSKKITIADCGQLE

B1: FP49251 (peptide)
stapled peptide: Ac-DPATARCEWAALHCELV-NH2
modifications: bridge 7-14; not fully specified (bridges); printed as Ac-DPATARCEWAALHCELV-NH2
notes: also called H-to-A member of the alanine-scanning series of FP01567
Binder B1 has a Kd [1] of 400 nM.

B2: FP49252 (peptide)
stapled peptide: Ac-DPATHACEWAALHCELV-NH2
modifications: bridge 7-14; not fully specified (bridges); printed as Ac-DPATHACEWAALHCELV-NH2
notes: also called R-to-A member of the alanine-scanning series of FP01567
In the case of B2, the Kd [1] is reported as 300 nM.

B3: FP49253 (peptide)
stapled peptide: Ac-DPATHRCAWAALHCELV-NH2
modifications: bridge 7-14; not fully specified (bridges); printed as Ac-DPATHRCAWAALHCELV-NH2
notes: also called E-to-A member of the alanine-scanning series of FP01567
In the case of B3, the Kd [1] is reported as 2700 nM.

B4: FP49254 (peptide)
stapled peptide: Ac-DPATHRCEAAALHCELV-NH2
modifications: bridge 7-14; not fully specified (bridges); printed as Ac-DPATHRCEAAALHCELV-NH2
notes: also called W-to-A member of the alanine-scanning series of FP01567
With B4 the Kd [1] was greater than 20000 nM.

B5: FP49255 (peptide)
stapled peptide: Ac-DPATHRCEWAAAHCELV-NH2
modifications: bridge 7-14; not fully specified (bridges); printed as Ac-DPATHRCEWAAAHCELV-NH2
notes: also called L-to-A member of the alanine-scanning series of FP01567
With B5 the Kd [1] was greater than 20000 nM.

B6: FP49257 (peptide)
stapled peptide: Ac-DPATHRCEWAALHCALV-NH2
modifications: bridge 7-14; not fully specified (bridges); printed as Ac-DPATHRCEWAALHCALV-NH2
notes: also called E-to-A (after the second Cys) member of the alanine-scanning series of FP01567
B6 was tested, and the Kd [1] was 1000 nM.

B7: FP49258 (peptide)
stapled peptide: Ac-DPATHRCEWAALHCEAV-NH2
modifications: bridge 7-14; not fully specified (bridges); printed as Ac-DPATHRCEWAALHCEAV-NH2
notes: also called L-to-A (penultimate residue) member of the alanine-scanning series of FP01567
B7 gave a Kd [1] greater than 20000 nM.

B8: FP49259 (peptide)
stapled peptide: Ac-DPATHRCEWAALHCELA-NH2
modifications: bridge 7-14; not fully specified (bridges)
notes: also called V-to-A (last residue) member of the alanine-scanning series of FP01567
For B8, the Kd [1] was greater than 20000 nM.

B9: MDM2 p53-binding domain, residues 17-111, C17S (enzyme)
chain: SQIPASEQETLVRPKPLLLKLLKSVGAQKDTYTMKEVLFYLGQYIMTKRLYDEKQQHIVYCSNDLLGDLFGVPSFSVKEHRKIYTMIYRNLVVVN
notes: Form for crystallography and the FP assays
B9 gave a Kd [2] of 254 nM and a Kd [3] of 1340 nM.

Binder Ac-DPAWWVCAIAAIECSDV-NH2 (bridge 7-14; not fully specified (bridges), Cluster C51) [FP19711] has a Kd [4] of 1700 nM, a Kd [5] of 1700 nM and a Kd [6] of 2000 nM. It also gave a Kd [7] of 900 nM.

B10: FP33215 (peptide)
peptide: Ac-WWVCAIAAIECSD-NH2
modifications: bridge 4-11; also: Cys staple linker not named
notes: also called truncated version of FP19711
B10 gave a Kd [4] of 270 nM.

Ac-DPANQDCHVAAWHCWQR-NH2 (bridge 7-14; not fully specified (bridges), Cluster C53) [FP29092] was tested, and the Kd [8] was 3000 nM.

Ac-PDCHIRAYVCH-NH2 (bridge 3-10; not fully specified (bridges), Cluster C54) [FP29103] showed a Kd [8] of 10000 nM.

With Ac-PECHIEAYWCI-NH2 (bridge 3-10; not fully specified (bridges); printed as Ac-PECHIEA YWCI-NH2, Cluster C54) [FP29102] the Kd [9] was 11000 nM.
